According to patent publication US20050169919A1 (published 2005):
Blank lines part the entries; values can stand above or below the molecule they belong to.

B1: CTLA4/CD28Ig hybrid fusion protein HS6 (Fc fusion, human)
chain: AMHVAQPAVVLASSRGIASFVCEYSYNLFSREVRVTVLRQADSQVTEVCAATYMMGNELTFLDDSICTGTSSGNQVNLTIQGLRAMDTGLYICKVELMYPPPYYLGIGNGTQIYVIDPEPCPD
notes: range 25-32; not shown: hinge and constant regions of human IgG1, hinge cysteines mutated; junction printed DQE
B2: B7 antigen (B7-1) stably expressed on CHO cells (ligand, human, UniProt P33681 35-288, looked up)
chain: VIHVTKEVKEVATLSCGHNVSVEELAQTRIYWQKEKKMVLTMMSGDMNIWPEYKNRTIFDITNNLSIVILALRPSDEGTYECVVLKYEKDAFKREHLAEVTLSVKADFPTPSISDFEIPTSNIRRIICSTSGGFPEPHLSWLENGEELNAINTTVSQDPETELYAVSSKLDFNMTTNHSFMCLIKYGHLRVNQTFNWNTTKQEHFPDNLLPSWAITLISVNGIFVICCLTYCFAPRCRERRRNERLRRESVRPV
notes: whole, on cells; also called B7/BB-1; CD80
B3: CTLA4/CD28Ig hybrid fusion protein HS2 (Fc fusion, human)
chain: AMHVAQPAVVLASSRGIASFVCKYSYNLFSREFRASLHKGLDSAVEVCVVYGNYSQQLQVYSKTGFNCDGKLGNESVTFYLQNLYVNQTDIYFCKIELMYPPPYYLGIGNGTQIYVIDPEPCPD
notes: range 23-96; not shown: hinge and constant regions of human IgG1, hinge cysteines mutated; junction printed DQE

Columns and labels:
[1] = target: B7Ig fusion protein (human) (UniProt P33681); experiment: solid phase competition for binding of 125I-B7Ig (4 nM) to immobilized CTLA4Ig
[2] = target: B7 antigen on lymphoblastoid cell line (PM LCL) (human) (UniProt P33681); experiment: cell-based or functional assay
[3] = target: B2; experiment: indirect cell binding enzyme immunoassay on ethanol-fixed B7-1+ CHO cells
Description: Round bottom tissue culture treated 96 well microtiter plates (Corning, Corning, N.Y.) were seeded with B7-1 positive CHO cells at 10³ cells/well.

CTLA4Ig fusion protein = target: T1, CTLA4Ig fusion protein (human, UniProt P01857-1 99-330 = IgG part); experiment: immunoprecipitation from 125I surface-labeled B7+ CHO extract, SDS-PAGE
T1 construct: domain: hinge, CH2 and CH3 regions; also called wild-type CTLA4Ig; human CTLA4Ig
Description: Immunoprecipitation Analysis and SDS PAGE. Cells were surface-labeled with ¹²⁵I and subjected to immunoprecipitation analysis. […] SDS-PAGE chromatography was performed on linear acrylamide gradients gels with stacking gels of 5% acrylamide. Gels were stained with Coomassie Blue, destained, and photographed or dried and exposed to X ray film (Kodak XAR-5).
B7⁺ CHO and PM LCL cells were surface-labeled with ¹²⁵I, and extracted with a non-ionic detergent solution as described above. […] Washed immunoprecipitates were then analyzed by SDS-PAGE (10-20% acrylamide gradient) under reducing conditions. The gel was then dried and subjected to autoradiography.

- IC50 [1]: 22 nM
- inhibition of Th-induced IgM production by allogeneic CD19+ B cells (ELISA) [2]: 65%
Molecule: murine monoclonal antibody BB-1 (anti-B7 antigen)

Molecule: B1
- binding result [3]: binds

Molecule: B2
- binding result (CTLA4Ig fusion protein): binds

Molecule: B3
- binding result [3]: binds
